# Assay results reported in US20060251726.
# How the values were obtained:
# [1] = test system: T1, non-stearate Fus1 peptide
# T1 sequence: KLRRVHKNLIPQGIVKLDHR
# [2] = test system: T2, stearate-Fus1 peptide (Stearic acid-KLRRVHKNLIPQGIVKLDHR)
# T2 sequence: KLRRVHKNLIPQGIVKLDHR
substance,measurement,setting,value
truncated commercial (New England Bio-Labs) cAbl tyrosine kinase (45 kD) containing only the SH2 and SH1 domains,"GST-Crk phosphorylation by the 45 kD Abl tyrosine kinase, 0-60 uM peptide",[1],Non-stearic acid modified Fus1 peptide did not inhibit Abl tyrosine kinase activity
same,phosphorylation of Gst-Crk by commercial Abl,[1],Non-stearate FUS1 peptide did not inhibit phosphorylation of Gst-Crk by commercial Abl
same,Abl tyrosine kinase assay using bacterially purified Abl kinase (GST-CRK phosphorylation),[2],This peptide was strongly inhibitory in an Abl tyrosine kinase assay using bacterially purified Abl kinase
same,"c-Abl tyrosine phosphorylation of GST-CRK (32P, SDS-PAGE, phosphoimager; 10-55 µM peptide)",[2],the peptide inhibits c-Abl tyrosine phosphorylation of GST-CRK
